We go through six molecules from US20240059764A1 (STARMAB BIOLOGICS SUZHOU, published 2024).

First the molecules themselves.
B1: A3-Fc fusion proteins binding with antigen (Fc fusion)
chain: QVQLVESGGGLVQAGGSLTLSCVASGFTFSRHGMTWVRQAPGKELDYVGEINIPGDDVDYDISVKGRFTISRDNAKNTVYLHMTNLKVEDTATYWCAQAGENMRLVTRRQGTQVTVSTEPKSSDKTHTCPPCPAPELLGGPSVFLFPPKPKDTLYITREPEVTCVVVDVSHEDPEVKFNWYVDGVEVHNAKTKPREEQYNSTYRVVSVLTVLHQDWLNGKEYKCKVSNKALPAPIEKTISKAKGQPREPQVYTLPPSREEMTKNQVSLTCLVKGFYPSDIAVEWESNGQPENNYKTTPPVLDSDGSFFLYSKLTVDKSRWQQGNVFSCSVMHEALHNHYTQKSLSLSPGK
B2: G1-Fc fusion proteins binding with antigen (Fc fusion)
chain: QVQLVESGGDLVQPGGSLTLACEASGFTISSTGMTWVRQAPGKELDWVGDINIPGTDTDYDISVKGRFTISKDHAKNTVYLQMTSLRPEDTAIYYCAKQGANLRQGVQSPGTLVTVSSEPKSSDKTHTCPPCPAPELLGGPSVFLFPPKPKDTLYITREPEVTCVVVDVSHEDPEVKFNWYVDGVEVHNAKTKPREEQYNSTYRVVSVLTVLHQDWLNGKEYKCKVSNKALPAPIEKTISKAKGQPREPQVYTLPPSREEMTKNQVSLTCLVKGFYPSDIAVEWESNGQPENNYKTTPPVLDSDGSFFLYSKLTVDKSRWQQGNVFSCSVMHEALHNHYTQKSLSLSPGK
B3: huG1-Fc fusion proteins binding with antigen (Fc fusion)
chain: QVQLVESGGGLVQPGGSLRLSCAASGFTISSTGMTWVRQAPGKGLEWVGDINIPGTDTDYDISVKGRFTISKDHAKNTVYLQMNSLRAEDTAVYYCAKQGANLRQGVQGQGTLVTVSSEPKSSDKTHTCPPCPAPELLGGPSVFLFPPKPKDTLYITREPEVTCVVVDVSHEDPEVKFNWYVDGVEVHNAKTKPREEQYNSTYRVVSVLTVLHQDWLNGKEYKCKVSNKALPAPIEKTISKAKGQPREPQVYTLPPSREEMTKNQVSLTCLVKGFYPSDIAVEWESNGQPENNYKTTPPVLDSDGSFFLYSKLTVDKSRWQQGNVFSCSVMHEALHNHYTQKSLSLSPGK
B4: huA3-Fc fusion proteins binding with antigen (Fc fusion)
chain: QVQLVESGGGLVQPGGSLRLSCAASGFTFSRHGMTWVRQAPGKGLEYVGEINIPGDDVDYDISVKGRFTISRDNAKNTLYLQMNSLRAEDTAVYYCARAGENMRLVTRGQGTLVTVSSEPKSSDKTHTCPPCPAPELLGGPSVFLFPPKPKDTLYITREPEVTCVVVDVSHEDPEVKFNWYVDGVEVHNAKTKPREEQYNSTYRVVSVLTVLHQDWLNGKEYKCKVSNKALPAPIEKTISKAKGQPREPQVYTLPPSREEMTKNQVSLTCLVKGFYPSDIAVEWESNGQPENNYKTTPPVLDSDGSFFLYSKLTVDKSRWQQGNVFSCSVMHEALHNHYTQKSLSLSPGK
B5: huF6-Fc fusion proteins binding with antigen (Fc fusion)
chain: EVQLVESGGGLVQPGGSLRLSCAASGSTLDSYTVAWVRQAPGKGLEWVSCASRSGASTNYANSVKGRFTISRDNSKNTVYLQMNSLRAEDTAVYYCAAYRNFGNFCVMGRYEYDEWGQGTLVTVSSEPKSSDKTHTCPPCPAPELLGGPSVFLFPPKPKDTLYITREPEVTCVVVDVSHEDPEVKFNWYVDGVEVHNAKTKPREEQYNSTYRVVSVLTVLHQDWLNGKEYKCKVSNKALPAPIEKTISKAKGQPREPQVYTLPPSREEMTKNQVSLTCLVKGFYPSDIAVEWESNGQPENNYKTTPPVLDSDGSFFLYSKLTVDKSRWQQGNVFSCSVMHEALHNHYTQKSLSLSPGK
B6: F6-Fc fusion proteins binding with antigen (Fc fusion)
chain: QVQLVESGGGLAQPGGSLRLSCEASGSTLDSYTVAWFRQAPGKEREGVSCASRSGASTNYANSVKGRFTISRDNAKNTVYLQMNSLKPEDTGVYYCAAYRNFGNFCVMGRYEYDEWGQGTQVTVSSEPKSSDKTHTCPPCPAPELLGGPSVFLFPPKPKDTLYITREPEVTCVVVDVSHEDPEVKFNWYVDGVEVHNAKTKPREEQYNSTYRVVSVLTVLHQDWLNGKEYKCKVSNKALPAPIEKTISKAKGQPREPQVYTLPPSREEMTKNQVSLTCLVKGFYPSDIAVEWESNGQPENNYKTTPPVLDSDGSFFLYSKLTVDKSRWQQGNVFSCSVMHEALHNHYTQKSLSLSPGK

Staphylococcus aureus alpha toxin, sequence (P09616 27-319 limits assumed): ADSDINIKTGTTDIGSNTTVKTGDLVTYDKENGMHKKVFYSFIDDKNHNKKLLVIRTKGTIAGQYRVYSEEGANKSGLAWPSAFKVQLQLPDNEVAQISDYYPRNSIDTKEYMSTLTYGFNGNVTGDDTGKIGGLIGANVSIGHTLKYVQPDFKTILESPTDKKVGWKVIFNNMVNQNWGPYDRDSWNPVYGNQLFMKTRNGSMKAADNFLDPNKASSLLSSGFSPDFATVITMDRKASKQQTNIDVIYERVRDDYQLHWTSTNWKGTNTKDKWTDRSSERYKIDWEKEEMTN

The test has as its target Staphylococcus aureus alpha toxin (Staphylococcus aureus, UniProt P09616).
Molecule B1 showed an EC50 of 9 ng/mL. The molecule B2 returned an EC50 of 7 ng/mL.

Consider B3, for which it took 6.35 ng/mL to reach a half-maximal effect (EC50).

In turn, B4 gave an EC50 of 5.97 ng/mL. Molecule B5 yielded an EC50 of 2.72 ng/mL. Consider B6, for which the EC50 was found to be 3 ng/mL.
